The record followed here is US20230272049A1 (published 2023).

In the test the target is T1, HPV16 E7 peptide on HLA-A*02:01 (human).
T1 peptide: YMLDLQPET
The test can be described thus: multimer staining.

B1: E7-11-28 (TCR, V domains shown)
Valpha: GQQVMQIPQYQHVQEGEDFTTYCNSSTTLSNIQWYKQRPGGHPVFLIQLVKSGEVKKQKRLTFQFGEAKKNSSLHITATQTTDVGTYFCAGIGSSNTGKLIFGQGTTLQVKP
Vbeta: EPEVTQTPSHQVTQMGQEVILRCVPISNHLYFYWYRQILGQKVEFLVSFYNNEISEKSEIFDDQFSVERPDGSNFTLKIRSTKLEDSAMYFCAITGRVSYEQYFGPGTRLTVT
As to B1, the binding result is given as “recognises”.

B2: E7-11-194 (TCR, V domains shown)
Valpha: GQQVMQIPQYQHVQEGEDFTTYCNSSTTLSNIQWYKQRPGGHPVFLIQLVKSGEVKKQKRLTFQFGEAKKNSSLHITATQTTDVGTYFCAGLGSSNTGKLIFGQGTTLQVKP
Vbeta: EPEVTQTPSHQVTQMGQEVILRCVPISNHLYFYWYRQILGQKVEFLVSFYNNEISEKSEIFDDQFSVERPDGSNFTLKIRSTKLEDSAMYFCATTGRASYEQYFGPGTRLTVT
As to B2, the binding result is “recognises”.

B3: E7-11-455 (TCR, V domains shown)
Valpha: QKEVEQDPGPLSVPEGAIVSLNCTYSNSAFQYFMWYRQYSRKGPELLMYTYSSGNKEDGRFTAQVDKSSKYISLFIRDSQPSDSATYLCAMAGSGNTGKLIFGQGTTLQVKP
Vbeta: DTGVSQDPRHKITKRGQNVTFRCDPISEHNRLYWYRQTLGQGPEFLTYFQNEAQLEKSRLLSDRFSAERPKGSFSTLEIQRTEQGDSAMYLCASSSSTKNIQYFGAGTRLSVL
As for B3, the binding result is given as “recognises”.

B4: E7-11-176 (TCR, V domains shown)
Valpha: DQQVKQNSPSLSVQEGRISILNCDYTNSMFDYFLWYKKYPAEGPTFLISISSIKDKNEDGRFTVFLNKSAKHLSLHIVPSQPGDSAVYFCAAKNSNSGYALNFGKGTSLLVTP
Vbeta: not shown
In the case of B4, the binding result is given as “recognises”.
